# Laboratory results reported in US20210355194A1.
# B1: variant 6-9 (Fc fusion)
# VHH: EVQLVESGGGLVQPGGSLRLSCAASGFTFDYYAMGWFRQAPGKEREFVSAIDSEGRTSYADSVKGRFTISADNSKNTAYLQMNSLKPEDTAVYYCARWGPFDIWGQGTLVTVSS
# B2: variant 6-63 (Fc fusion)
# VHH: EVQLVESGGGLVQPGGSLRLSCAASGQTFNMGWFRQAPGKEREFVAAIGSGGSTSYADSVKGRFTISADNSKNTAYLQMNSLKPEDTAVYYCWRLGNDYFDYWGQGTLVTVSS
# Key:
# Conditions in all cases: remark: other sources report otherwise
# [1] = biological target: T1, CV S-protein construct 6 trimer TP31001F (SARS-CoV-2), P0DTC2; assay: SPR
# [2] = biological target: T1, CV S-protein construct 6 trimer …; assay: SPR; remark: listed apart in the source
# [3] = biological target: SARS-COV2-S1 RBD (mouse IgG2Fc tag) (SARS-CoV-2), P0DTC2; assay: FACS, S1 RBD-mFc on Vero E6 (ACE2)
# [4] = biological target: SARS-COV2-S1 RBD (mouse IgG2Fc tag) (SARS-CoV-2), P0DTC2; assay: FACS, blocks S1 RBD-mFc binding to ACE2 on Vero E6
# [5] = biological target: SARS-COV2-S1 RBD (mouse IgG2Fc tag) (SARS-CoV-2), P0DTC2; assay: column not explained; likely FACS, S1 RBD on Vero E6
Binder,Kd [1] [nM],Kd [2] [nM],Competition Factor [3],IC50 [4] [nM],MFI Fold Decrease [5] [fold]
B1,0.9,0.9,–,–,–
B2,0.3,0.3,7.76,0.74,7.76
